Starred links: 1 amine or outer side, 2 acyl side, 3 side chain; linkers in the order of their positions; H or OH if unused. Non-standard residues stand in square brackets, D forms with d. Primed or numbered codes have the meaning given here. aTyr = Tyr with backbone N-amino (N-aminated amide nitrogen), NN([C@@H](Cc1ccc(O[*:3])cc1)C(=O)[*:2])[*:1]; aIle′ = Ile with backbone N-amino (N-aminated amide nitrogen), CC[C@H](C)[C@@H](C(=O)[*:2])N(N)[*:1]; aVal = Val with backbone N-amino (N-aminated amide nitrogen), CC(C)[C@@H](C(=O)[*:2])N(N)[*:1]; N(NH2)Lys = NCCCC[C@H](NN)C(=O)O
Each binder was assayed against Human tauP301L (0N4R), recombinant, N-terminal His tag (human, UniProt P10636 2-758) (assay: cell-based or functional assay).
Chain of Human tauP301L (0N4R), recombinant, N-terminal His tag (P10636 other isoform, or with tags, fused parts or gaps): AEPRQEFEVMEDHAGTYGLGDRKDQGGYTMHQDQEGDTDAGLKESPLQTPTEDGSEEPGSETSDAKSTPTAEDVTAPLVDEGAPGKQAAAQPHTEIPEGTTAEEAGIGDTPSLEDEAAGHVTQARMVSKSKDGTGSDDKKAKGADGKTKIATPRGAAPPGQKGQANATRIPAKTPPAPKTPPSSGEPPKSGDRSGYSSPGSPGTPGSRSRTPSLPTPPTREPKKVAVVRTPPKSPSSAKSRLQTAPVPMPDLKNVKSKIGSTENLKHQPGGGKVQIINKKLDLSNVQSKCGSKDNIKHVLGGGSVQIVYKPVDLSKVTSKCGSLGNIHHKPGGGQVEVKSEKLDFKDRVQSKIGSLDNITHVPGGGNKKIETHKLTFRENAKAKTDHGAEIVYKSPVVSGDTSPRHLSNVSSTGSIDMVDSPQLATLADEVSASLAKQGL

Binder	end-point ThT fluorescence of heparin-induced tau aggregation (Tau 10 µM: Inhibitor 20 µM, 48 h) [%]	fibril capping IC50 in cells (mature tauP301L fibrils incubated 36 h with inhibitor, then HEK293 tau-RD(LM)-YFP cells) [µM]
Ac-VQ[aIle′]INK-NH2 (SMILES CC[C@H](C)[C@H](NC(=O)[C@H]([C@@H](C)CC)N(N)C(=O)[C@H](CCC(N)=O)NC(=O)[C@@H](NC(C)=O)C(C)C)C(=O)N[C@@H](CC(N)=O)C(=O)N[C@@H](CCCCN)C(N)=O) [Compound 2, Ac-Val-Gln-aIle-Ile-Asn-Lys-NH2]	≤ 50	
Ac-VQ[aIle′]VYK-NH2 (SMILES CC[C@H](C)[C@@H](C(=O)N[C@H](C(=O)N[C@@H](Cc1ccc(O)cc1)C(=O)N[C@@H](CCCCN)C(N)=O)C(C)C)N(N)C(=O)[C@H](CCC(N)=O)NC(=O)[C@@H](NC(C)=O)C(C)C) [Compound 6, Ac-Val-Gln-aIle-Val-Tyr-Lys-NH2]	≤ 50	
Ac-VQ[aIle′]V[aTyr]K-NH2 (SMILES CC[C@H](C)[C@@H](C(=O)N[C@H](C(=O)N(N)[C@@H](Cc1ccc(O)cc1)C(=O)N[C@@H](CCCCN)C(N)=O)C(C)C)N(N)C(=O)[C@H](CCC(N)=O)NC(=O)[C@@H](NC(C)=O)C(C)C) [Compound 12, Ac-Val-Gln-aIle-Val-aTyr-Lys-NH2]	≤ 50	~5
Ac-[aVal]QIVYK-NH2 (SMILES CC[C@H](C)[C@H](NC(=O)[C@H](CCC(N)=O)NC(=O)[C@H](C(C)C)N(N)C(C)=O)C(=O)N[C@H](C(=O)N[C@@H](Cc1ccc(O)cc1)C(=O)N[C@@H](CCCCN)C(N)=O)C(C)C) [Compound 5, Ac-aVal-Gln-Ile-Val-Tyr-Lys-NH2]	≤ 50	
Ac-[aVal]Q[aIle′]INK-NH2 (SMILES CC[C@H](C)[C@H](NC(=O)[C@H]([C@@H](C)CC)N(N)C(=O)[C@H](CCC(N)=O)NC(=O)[C@H](C(C)C)N(N)C(C)=O)C(=O)N[C@@H](CC(N)=O)C(=O)N[C@@H](CCCCN)C(N)=O) [Compound 4, Ac-aVal-Gln-aIle-Ile-Asn-Lys-NH2]	≤ 50	
Ac-VQI[aVal]Y[N(NH2)Lys]-NH2 (SMILES CC[C@H](C)[C@H](NC(=O)[C@H](CCC(N)=O)NC(=O)[C@@H](NC(C)=O)C(C)C)C(=O)N(N)[C@H](C(=O)N[C@@H](Cc1ccc(O)cc1)C(=O)N(N)[C@@H](CCCCN)C(N)=O)C(C)C) [Compound 13, Ac-Val-Gln-Ile-aVal-Tyr-aLys-NH2]	≤ 50	~5
